Experimental data reported in the supplement of paper PMC11246515.
± gives the standard deviation of the averaged measurements.

Assay: total protein half-life in vivo (active degradation + dilution); higher = more stable protein
[1] = wild type E. coli NCM3722, growth: C-lim chemostat, doubling time 3 h
[2] = E. coli NCM3722 delta-clpP delta-lon delta-hslV, growth: N-lim chemostat, doubling time 6 h
[3] = E. coli NCM3722 delta-clpP, growth: N-lim chemostat, doubling time 6 h
[4] = E. coli NCM3722 delta-hslV, growth: N-lim chemostat, doubling time 6 h
[5] = E. coli NCM3722 delta-lon, growth: N-lim chemostat, doubling time 6 h
[6] = E. coli NCM3722 delta-smpB, growth: N-lim chemostat, doubling time 6 h
[7] = wild type E. coli NCM3722, growth: C-lim chemostat, doubling time 6 h
[8] = wild type E. coli NCM3722, growth: C-lim chemostat, doubling time 12 h
[9] = wild type E. coli NCM3722, growth: N-lim chemostat, doubling time 6 h
[10] = wild type E. coli NCM3722, growth: N-lim chemostat, doubling time 12 h
[11] = wild type E. coli NCM3722, growth: P-lim chemostat, doubling time 6 h
[12] = wild type E. coli NCM3722, growth: P-lim chemostat, doubling time 12 h

| Sequence | total protein half-life in vivo [1] | total protein half-life in vivo [2] | total protein half-life in vivo [3] | total protein half-life in vivo [4] | total protein half-life in vivo [5] | total protein half-life in vivo [6] | total protein half-life in vivo [7] | total protein half-life in vivo [8] | total protein half-life in vivo [9] | total protein half-life in vivo [10] | total protein half-life in vivo [11] | total protein half-life in vivo [12] |
| --- | --- | --- | --- | --- | --- | --- | --- | --- | --- | --- | --- | --- |
| MISDSKLLASAAWDAQSLNELKAKAGEDPAANIRPVARQVEGMFVQMMLKSMRDALPKDGLFSSEHTRLYTSMYDQQIAQQMTAGKGLGLAEMMVKQMTPEQPLPEESTPAAPMKFPLETVVRYQNQALSQLVQKAVPRNYDDSLPGDSKAFLAQLSLPAQLASQQSGVPHHLILAQAALESGWGQRQIRRENGEPSYNLFGVKASGNWKGPVTEITTTEYENGEAKKVKAKFRVYSSYLEALSDYVGLLTRNPRYAAVTTAASAEQGAQALQDAGYATDPHYARKLTNMIQQMKSISDKVSKTYSMNIDNLF | 0.391 h | – | – | – | – | – | – | – | – | – | – | – |
| MSLNLVSEQLLAANGLKHQDLFAILGQLAERRLDYGDLYFQSSYHESWVLEDRIIKDGSYNIDQGVGVRAISGEKTGFAYADQISLLALEQSAQAARTIVRDSGDGKVQTLGAVEHSPLYTSVDPLQSMSREEKLDILRRVDKVAREADKRVQEVTASLSGVYELILVAATDGTLAADVRPLVRLSVSVLVEEDGKRERGASGGGGRFGYEFFLADLDGEVRADAWAKEAVRMALVNLSAVAAPAGTMPVVLGAGWPGVLLHEAVGHGLEGDFNRRGTSVFSGQVGELVASELCTVVDDGTMVDRRGSVAIDDEGTPGQYNVLIENGILKGYMQDKLNARLMGMTPTGNGRRESYAHLPMPRMTNTYMLPGKSTPQEIIESVEYGIYAPNFGGGQVDITSGKFVFSTSEAYLIENGKVTKPVKGATLIGSGIETMQQISMVGNDLKLDNGVGVCGKEGQSLPVGVGQPTLKVDNLTVGGTA [P0AGG8] | 2.74 ± 0.14 h | 5.22 ± 1.1 h | 3.75 ± 0.12 h | 3.805 ± 0.0063 h | 4.52 ± 0.13 h | 3.73 ± 0.064 h | 5.14 ± 0.45 h | 8.1 ± 0.85 h | 3.88 ± 0.13 h | 6.45 ± 0.19 h | 5.11 ± 0.16 h | 11 ± 1.7 h |
| MRICSDQPCIVLLTEKDVWIRVNGKEPISLKANHMALLNCENNIIDVSSLNNTLVAHISHDIIKDYLRFLNKDLSQIPVWQRSATPILTLPCLTPDVFRVAAQHSMMPAETESEKERTRALLFTVLSRFLDSKKFVSLMMYMLRNCVSDSVYQIIESDIHKDWNLSMVASCLCLSPSLLKKKLKSENTSYSQIITTCRMRYAVNELMMDGKNISQVSQSCGYNSTSYFISVFKDFYGMTPLHYVSQHRERTVA | – | – | – | – | – | 1.24 h | – | – | – | – | – | – |
| MKKVLLIILLLLVVLGIAAGVGVWKVRHLADSKLLIKEETIFTLKPGTGRLALGEQLYADKIINRPRVFQWLLRIEPDLSHFKAGTYRFTPQMTVREMLKLLESGKEAQFPLRLVEGMRLSDYLKQLREAPYIKHTLSDDKYATVAQALELENPEWIEGWFWPDTWMYTANTTDVALLKRAHKKMVKAVDSAWEGRADGLPYKDKNQLVTMASIIEKETAVASERDKVASVFINRLRIGMRLQTDPTVIYGMGERYNGKLSRADLETPTAYNTYTITGLPPGAIATPGADSLKAAAHPAKTPYLYFVADGKGGHTFNTNLASHNKSVQDYLKVLKEKNAQ | 3.49 ± 0.33 h | 6.33 ± 0.68 h | 6.52 ± 1.1 h | 6.8 ± 0.6 h | 6.58 ± 0.69 h | 6.22 ± 0.74 h | 6.65 ± 0.64 h | 12.7 ± 1.6 h | 6.34 ± 0.68 h | 12.4 ± 1.7 h | 6 ± 0.25 h | 12 ± 0.45 h |
| MRRTFIKKEGVVITTLARYLLGEKCGNRLKTIDELANECRSSVGLTQAALKTLESSGAIRIERRGRNGSYLVEMDNKALLTHVDINNVVCAMPLPYTRLYEGLASGLKAQFDGIPFYYAHMRGADIRVECLLNGVYDMAVVSRLAAESYLTQKGLCLALELGPHTYVGEHQLICRKGESANVKRVGLDNRSADQKIMTDVFFGGSDVERVDLSYHESLQRIVKGDVDAVIWNVVAENELTMLGLEATPLTDDPRFLQATEAVVLTRVDDYPMQQLLRAVVDKHALLAHQQRVVSGEQEPSY | 2.78 ± 0.093 h | 6.2 ± 0.085 h | 5.94 ± 0.07 h | 5.34 ± 0.15 h | 5.75 ± 0.52 h | 4.78 ± 0.41 h | 5.3 ± 0.1 h | 7.63 ± 2.6 h | 4.68 ± 0.65 h | 9.45 ± 0.82 h | 5.166 ± 0.0084 h | 9.42 ± 0.63 h |
| MTQFNPVDHPHRRYNPLTGQWILVSPHRAKRPWQGAQETPAKQVLPAHDPDCFLCAGNVRVTGDKNPDYTGTYVFTNDFAALMSDTPDAPESHDPLMRCQSARGTSRVICFSPDHSKTLPELSVAALTEIVKTWQEQTAELGKTYPWVQVFENKGAAMGCSNPHPHGQIWANSFLPNEAEREDRLQKEYFAEQKSPMLVDYVQRELADGSRTVVETEHWLAVVPYWAAWPFETLLLPKAHVLRITDLTDAQRSDLALALKKLTSRYDNLFQCSFPYSMGWHGAPFNGEENQHWQLHAHFYPPLLRSATVRKFMVGYEMLAETQRDLTAEQAAERLRAVSDIHFRESGV | 3.38 ± 0.37 h | 3.59 ± 0.68 h | 3.9 ± 0.27 h | 4.65 ± 1 h | 5.17 ± 1 h | 3.41 ± 0.41 h | 5.51 ± 0.28 h | 12.5 ± 2.4 h | 4.16 ± 0.59 h | 6.05 ± 0.21 h | 5.52 ± 0.24 h | 11.7 ± 0.13 h |
| MQQLASFLSGTWQSGRGRSRLIHHAISGEALWEVTSEGLDMAAARQFAIEKGAPALRAMTFIERAAMLKAVAKHLLSEKERFYALSAQTGATRADSWVDIEGGIGTLFTYASLGSRELPDDTLWPEDELIPLSKEGGFAARHLLTSKSGVAVHINAFNFPCWGMLEKLAPTWLGGMPAIIKPATATAQLTQAMVKSIVDSGLVPEGAISLICGSAGDLLDHLDSQDVVTFTGSAATGQMLRVQPNIVAKSIPFTMEADSLNCCVLGEDVTPDQPEFALFIREVVREMTTKAGQKCTAIRRIIVPQALVNAVSDALVARLQKVVVGDPAQEGVKMGALVNAEQRADVQEKVNILLAAGCEIRLGGQADLSAAGAFFPPTLLYCPQPDETPAVHATEAFGPVATLMPAQNQRHALQLACAGGGSLAGTLVTADPQIARQFIADAARTHGRIQILNEESAKESTGHGSPLPQLVHGGPGRAGGGEELGGLRAVKHYMQRTAVQGSPTMLAAISKQWVRGAKVEEDRIHPFRKYFEELQPGDSLLTPRRTMTEADIVNFACLSGDHFYAHMDKIAAAESIFGERVVHGYFVLSAAAGLFVDAGVGPVIANYGLESLRFIEPVKPGDTIQVRLTCKRKTLKKQRSAEEKPTGVVEWAVEVFNQHQTPVALYSILTLVARQHGDFVD | – | 4.86 h | – | – | – | – | – | – | – | 6.08 h | – | 7.41 h |
| MADTRPERRFTRIDRLPPYVFNITAELKMAARRRGEDIIDFSMGNPDGATPPHIVEKLCTVAQRPDTHGYSTSRGIPRLRRAISRWYQDRYDVEIDPESEAIVTIGSKEGLAHLMLATLDHGDTVLVPNPSYPIHIYGAVIAGAQVRSVPLVEGVDFFNELERAIRESYPKPKMMILGFPSNPTAQCVELEFFEKVVALAKRYDVLVVHDLAYADIVYDGWKAPSIMQVPGARDVAVEFFTLSKSYNMAGWRIGFMVGNKTLVSALARIKSYHDYGTFTPLQVAAIAALEGDQQCVRDIAEQYKRRRDVLVKGLHEAGWMVEMPKASMYVWAKIPEPYAAMGSLEFAKKLLNEAKVCVSPGIGFGDYGDTHVRFALIENRDRIRQAIRGIKAMFRADGLLPASSKHIHENAE | 2.43 ± 0.15 h | 4.48 ± 0.37 h | 4.17 ± 0.25 h | 2.21 ± 0.2 h | 2.27 ± 0.23 h | 2.22 ± 0.062 h | 3.92 ± 0.59 h | 7.44 ± 1.7 h | 2.28 ± 0.1 h | 2.92 ± 0.049 h | 4.75 ± 0.82 h | 7.31 ± 0.3 h |
